The record followed here is patent publication US20220332804A1 (CSL INNOVATION, published 2022).

Common to all, as to experiment: SPR, KD relative to WT C2;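 note: biacore SPR at 37 °C, anti-C2 mAbs captured on anti-human IgG chips with alanine or serine point mutants of C2 as analyte, KD from 1:1 fit compared with wild-type C2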
(SPR reads the build-up and loss of mass on a sensor chip optically.)

One assay has as its target T1, human C2 K415A (human, UniProt P06681 21-752).
T1 sequence: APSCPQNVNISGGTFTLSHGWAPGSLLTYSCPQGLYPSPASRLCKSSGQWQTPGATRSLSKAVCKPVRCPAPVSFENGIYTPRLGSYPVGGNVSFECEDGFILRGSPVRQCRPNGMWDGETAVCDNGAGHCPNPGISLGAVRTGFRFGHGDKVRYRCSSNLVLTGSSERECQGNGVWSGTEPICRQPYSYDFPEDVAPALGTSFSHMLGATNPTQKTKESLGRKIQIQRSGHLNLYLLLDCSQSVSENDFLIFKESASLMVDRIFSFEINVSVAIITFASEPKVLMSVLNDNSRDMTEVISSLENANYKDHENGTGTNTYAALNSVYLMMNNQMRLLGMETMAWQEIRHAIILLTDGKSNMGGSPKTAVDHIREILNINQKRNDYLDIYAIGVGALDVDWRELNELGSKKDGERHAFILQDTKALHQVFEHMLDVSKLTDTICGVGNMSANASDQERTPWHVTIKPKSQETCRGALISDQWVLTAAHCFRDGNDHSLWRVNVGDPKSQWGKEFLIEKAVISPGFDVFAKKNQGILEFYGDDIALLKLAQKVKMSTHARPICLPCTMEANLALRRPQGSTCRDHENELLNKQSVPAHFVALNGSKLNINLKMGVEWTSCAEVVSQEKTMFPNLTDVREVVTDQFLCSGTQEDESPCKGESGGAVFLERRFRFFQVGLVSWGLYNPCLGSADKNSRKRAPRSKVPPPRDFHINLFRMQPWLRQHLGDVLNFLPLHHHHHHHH

In another assay the target is T2, human C2 D419A (human, UniProt P06681 21-752).
T2 sequence: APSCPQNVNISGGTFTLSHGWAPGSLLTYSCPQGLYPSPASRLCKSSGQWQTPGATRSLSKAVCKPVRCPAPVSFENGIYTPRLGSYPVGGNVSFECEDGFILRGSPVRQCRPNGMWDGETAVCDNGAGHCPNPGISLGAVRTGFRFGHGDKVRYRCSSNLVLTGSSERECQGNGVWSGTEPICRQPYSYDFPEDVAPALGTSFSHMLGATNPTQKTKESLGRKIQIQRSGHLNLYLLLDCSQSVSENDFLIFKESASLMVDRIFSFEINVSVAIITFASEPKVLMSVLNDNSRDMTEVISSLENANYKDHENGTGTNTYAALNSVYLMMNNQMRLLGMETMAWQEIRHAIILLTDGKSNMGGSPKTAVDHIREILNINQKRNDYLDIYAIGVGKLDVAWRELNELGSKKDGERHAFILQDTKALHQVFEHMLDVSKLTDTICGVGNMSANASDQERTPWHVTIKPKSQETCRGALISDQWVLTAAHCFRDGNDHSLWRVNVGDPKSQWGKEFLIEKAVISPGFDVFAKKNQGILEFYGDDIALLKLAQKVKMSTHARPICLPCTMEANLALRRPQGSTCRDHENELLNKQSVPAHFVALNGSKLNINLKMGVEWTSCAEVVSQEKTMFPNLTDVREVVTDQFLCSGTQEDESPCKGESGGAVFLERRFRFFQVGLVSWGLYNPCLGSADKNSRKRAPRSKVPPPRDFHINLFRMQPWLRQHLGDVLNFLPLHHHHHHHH

A further assay deals with T3, human C2 V465A (human, UniProt P06681 21-752).
T3 sequence: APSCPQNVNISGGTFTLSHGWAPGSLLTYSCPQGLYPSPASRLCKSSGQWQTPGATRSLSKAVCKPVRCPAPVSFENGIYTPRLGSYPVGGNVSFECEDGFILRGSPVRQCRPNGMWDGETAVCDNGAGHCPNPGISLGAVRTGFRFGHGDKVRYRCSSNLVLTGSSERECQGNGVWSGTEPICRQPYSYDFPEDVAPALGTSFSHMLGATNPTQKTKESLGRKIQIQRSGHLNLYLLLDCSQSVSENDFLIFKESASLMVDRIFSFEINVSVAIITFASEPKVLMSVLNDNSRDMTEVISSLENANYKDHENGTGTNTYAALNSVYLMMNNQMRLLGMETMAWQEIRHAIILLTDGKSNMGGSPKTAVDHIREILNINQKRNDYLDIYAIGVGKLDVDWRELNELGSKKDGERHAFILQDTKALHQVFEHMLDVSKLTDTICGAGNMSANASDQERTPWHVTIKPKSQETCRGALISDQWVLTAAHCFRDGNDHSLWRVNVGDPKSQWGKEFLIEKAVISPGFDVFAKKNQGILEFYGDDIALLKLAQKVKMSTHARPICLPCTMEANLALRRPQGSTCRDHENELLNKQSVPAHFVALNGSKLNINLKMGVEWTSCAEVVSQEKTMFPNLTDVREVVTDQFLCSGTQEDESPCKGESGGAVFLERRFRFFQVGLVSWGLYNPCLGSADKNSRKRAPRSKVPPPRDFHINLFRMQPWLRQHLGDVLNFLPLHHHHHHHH

Another assay has as its target T4, human C2 R688A (human, UniProt P06681 21-752).
T4 sequence: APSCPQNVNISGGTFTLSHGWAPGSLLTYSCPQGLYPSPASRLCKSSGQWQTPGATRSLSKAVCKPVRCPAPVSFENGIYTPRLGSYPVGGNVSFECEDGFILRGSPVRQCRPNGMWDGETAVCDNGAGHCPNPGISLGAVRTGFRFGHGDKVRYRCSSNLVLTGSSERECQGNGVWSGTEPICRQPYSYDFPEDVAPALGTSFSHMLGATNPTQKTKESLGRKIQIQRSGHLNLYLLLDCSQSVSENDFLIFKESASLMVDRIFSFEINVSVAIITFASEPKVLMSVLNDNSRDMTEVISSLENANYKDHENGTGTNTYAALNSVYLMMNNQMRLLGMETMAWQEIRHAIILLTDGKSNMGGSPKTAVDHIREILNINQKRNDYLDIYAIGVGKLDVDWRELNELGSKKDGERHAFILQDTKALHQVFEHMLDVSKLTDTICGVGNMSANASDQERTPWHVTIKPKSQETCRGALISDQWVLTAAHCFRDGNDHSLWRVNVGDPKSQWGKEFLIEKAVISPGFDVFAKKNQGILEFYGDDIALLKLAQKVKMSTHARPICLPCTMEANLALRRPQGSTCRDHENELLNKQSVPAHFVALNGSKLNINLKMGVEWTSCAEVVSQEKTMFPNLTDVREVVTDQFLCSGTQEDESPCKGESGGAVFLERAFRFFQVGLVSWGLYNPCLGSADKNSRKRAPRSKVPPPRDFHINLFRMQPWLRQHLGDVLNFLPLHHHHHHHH

B1: RF16-242 (antibody, human IgG4 S228P, lambda, V domains shown)
VH: EVQLLQSGAEVKKPGESLKISCKGSGYSFTSYWIGWVRQMPGKGLEWMGIIYPGDSDTRYSPSFQGQVTISADKSISTAYLQWSSLKASDTAMYYCARRGHYGDYFDYWGQGTLVTVSS
VL: SYELTQPPSVSVSPGQTARITCSGDALPKKYAYWYHQKSGQAPVLVIYEDRRRPSEIPERFSGSSSGTMATLTITGAQVEDEGVYFCYSRDRAGNQRVFGGGTQLTVLG
notes: pH-dependent anti-C2 antibody from a phage display library
For the molecule B1, the Fold diff in the assay with human C2 K415A turned out to be 1 fold; with human C2 D419A, 2 fold; with human C2 V465A, 2 fold; in the assay with human C2 R688A, 2 fold.
